This data set has as its target T1, alpha-fetoprotein (AFP) (UniProt P02771 19-609).
T1 sequence: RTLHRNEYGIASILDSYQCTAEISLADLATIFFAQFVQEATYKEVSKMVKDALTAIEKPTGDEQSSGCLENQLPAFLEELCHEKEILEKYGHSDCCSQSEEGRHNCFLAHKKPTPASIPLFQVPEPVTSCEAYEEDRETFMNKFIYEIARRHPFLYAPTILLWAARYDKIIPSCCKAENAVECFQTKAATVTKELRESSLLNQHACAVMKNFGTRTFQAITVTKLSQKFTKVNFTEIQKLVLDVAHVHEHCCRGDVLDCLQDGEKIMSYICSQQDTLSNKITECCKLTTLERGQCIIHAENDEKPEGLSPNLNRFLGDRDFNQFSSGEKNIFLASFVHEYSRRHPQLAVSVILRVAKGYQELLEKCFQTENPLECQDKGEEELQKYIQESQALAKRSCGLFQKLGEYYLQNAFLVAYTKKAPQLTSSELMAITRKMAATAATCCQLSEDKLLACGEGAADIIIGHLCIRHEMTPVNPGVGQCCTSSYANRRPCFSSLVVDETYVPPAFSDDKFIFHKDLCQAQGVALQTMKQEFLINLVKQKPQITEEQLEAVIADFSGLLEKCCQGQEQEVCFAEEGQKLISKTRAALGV
Put plainly: electrochemical aptasensor (DPV, CV, EIS; Fe(CN)6 3-/4- probe); immobilized aptamer, BSA-blocked; linear 1 pg/mL-1 ug/mL, LOD 0.31 pg/mL (not a Kd); AFP incubated 1 h at 4 C on aptamer electrode, rinsed with 0.01 M PBS (sodium phosphate) pH 7.4; read-out in 2.5 mM K3/K4[Fe(CN)6], 0.1 M KCl. To be noted: protein: commercial.

B1: AFP aptamer (ssDNA)
DNA: GTGACGCTCCTAACGCTGACTCAGGTGCAGTTCTCGACTCGGTCTTGATGTGGGTCCTGTCCGTCCGAACCAATC
modifications: 5'-NH2, coupled to GPTMS epoxy groups on mesoporous silica film
Consider B1, for which the binding result is “binds”.

The values are drawn from publication PMC10296332, “Vertically-Ordered Mesoporous Silica Film Based Electrochemical Aptasensor for Highly Sensitive Detection of Alpha-Fetoprotein in Human Serum”.
